Reference: patent publication EP4725966A1, “HUMAN EPIDERMAL GROWTH FACTOR 3 ANTIBODY, PREPARATION METHOD THEREFOR, AND USE THEREOF” (priority 2023, dated 2024)
Substitutions are numbered along the chain they refer to.

B1: mHE6 (antibody, V domains shown)
VH: EVQLQQSGPDLVKPGTSVKMSCKASGYTFTDYYMHWVRQSHGKSLEWIGYINPNNGDAIYNQKFKGKATLTVNKSSTTAYMALRSLTSEDSAVYFCATYDYGGDFYFDVWGTGTTVTVSS
VL: DIELTQSPALMSASPGEKVTMTCSASSSVSYMYWYQQKPRSSPKPWIYLTSNLASGVPARFSGSGSGTSYSLTISSMEAEDAATYYCQQWSRNPLTFGAGTKLELKR
B2: mHE1 (antibody, V domains shown)
VH: EVKLQESGPGLVKPSQSLSLTCSVTGYSITSGYYWNWIRQFPGNKLEWMGYISYDGSNNYNPSLKNRISITRDTSKNQFFLNLNSVTTEDTATYYCARVDWDGDAMDYWGQGTSVTVSS
VL: DIVLTQSPASLAVSLGQRATISCRASESVDNYGIRLMHWYQQKSGQPPKLLIHRASNLESGIPARFSGSGSRTDFTLTINPVETDDVATYYCQQSNKDPFTFGSGTKLEIKR
B3: mHE2 (antibody, V domains shown)
VH: B2 VH with N82K, V99M
VL: B2 VL with R35S, S44P, H53Y, F100P, S104A, I110L
B4: mHE5 (antibody, V domains shown)
VH: B2 VH with K3Q, N82K, R98S, V99Y, W101Y, A105W, M106F, D107A, S114L, S119A
VL: B2 VL with N31H, I34S, R35S, L36F, S44P, H53Y, L58P, F100P, S104G
B5: mHE4 (antibody, V domains shown)
VH: EVQLVESGGGLVKPGGSLKLSCAASGFTFSSYVMSWVRQTPEKRLEWVATISDGDSSTYYPDNVKGRFTISRDNAKNNLFLQMSHLKSEDTAMYFCARDKGHGYDEGAFVYWGQGTLVTVSA
VL: DIQMTQSPASLSASVEETVTITCRASENIYSYLAWYQQKQGKSPQLLVYNAKTLAEGVPSRFSGSGSGTEFSLKINSLQPEDFGSYYCQNHYGTPYTFGGGTKLEIKQ

What follows are binders tested against cynomolgus HER3-ECD-His (cynomolgus monkey) (UniProt G7PIG5) (assay: ELISA on coated Cyno HER3).
Chain of cynomolgus HER3-ECD-His (cynomolgus monkey) (G7PIG5 entry or part of it): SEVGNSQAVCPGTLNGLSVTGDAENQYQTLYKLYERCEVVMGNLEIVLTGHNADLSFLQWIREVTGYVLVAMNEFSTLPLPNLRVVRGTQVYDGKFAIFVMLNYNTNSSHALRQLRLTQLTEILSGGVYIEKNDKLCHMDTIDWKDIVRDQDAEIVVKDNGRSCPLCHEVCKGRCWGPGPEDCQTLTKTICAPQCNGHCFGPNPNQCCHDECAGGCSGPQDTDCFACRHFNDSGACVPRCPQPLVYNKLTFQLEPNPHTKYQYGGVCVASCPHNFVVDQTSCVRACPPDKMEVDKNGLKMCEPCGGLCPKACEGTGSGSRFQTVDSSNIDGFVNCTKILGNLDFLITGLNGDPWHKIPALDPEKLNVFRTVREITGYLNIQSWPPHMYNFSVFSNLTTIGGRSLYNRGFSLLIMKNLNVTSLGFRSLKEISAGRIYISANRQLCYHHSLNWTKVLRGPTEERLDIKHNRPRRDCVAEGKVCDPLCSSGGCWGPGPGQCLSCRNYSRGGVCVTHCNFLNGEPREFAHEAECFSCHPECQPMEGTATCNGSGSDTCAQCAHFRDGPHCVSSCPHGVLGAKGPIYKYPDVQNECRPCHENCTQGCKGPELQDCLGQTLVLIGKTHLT

Row | Binder | OD450
1 | B1 | 1.51 OD450
2 | B2 | 1.77 OD450
3 | B3 | 1.77 OD450
4 | B4 | 1.82 OD450
5 | B5 | 1.87 OD450

What follows are binders tested against human HER3-ECD-His (human) (UniProt P21860) (assay: ELISA on coated human HER3).

Row | Binder | OD450
6 | B1 | 2.12 OD450
7 | B2 | 1.86 OD450
8 | B3 | 1.96 OD450
9 | B4 | 1.9 OD450
10 | B5 | 2.07 OD450

The binders below were run against human HER3 on cells (human) (UniProt P21860) (assay: FACS on Human HER3-CHO cells).

Row | Binder | MFI
11 | B1 | 205 MFI
12 | B2 | 173 MFI
13 | B3 | 195 MFI
14 | B4 | 224 MFI
15 | B5 | 199 MFI
